Laboratory results as given in patent US20200283508A1 (TEXAS A AND M UNIVERSITY SYSTEM, published 2020).
Read-outs that look alike come from different tables or passages of the source.

T1: Coa-R0474-505 (recombinant protein) (Staphylococcus aureus strain Newman)
T1 chain: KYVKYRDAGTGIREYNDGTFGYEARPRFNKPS

T2: Efb-N30-105 (Staphylococcus aureus strain Newman, UniProt A6QG59 30-105)
T2 sequence: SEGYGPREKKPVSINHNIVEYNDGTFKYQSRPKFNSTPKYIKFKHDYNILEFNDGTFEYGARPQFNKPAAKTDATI

B1: Fibrinogen-D fragment (other)
chain 1: VSEDLRSRIEVLKRKVIEKVQHIQLLQKNVRAQLVDMKRLEVDIDIKIRSCRGSCSRALAREVDLKDYEDQQKQLEQVIAKDLLPSR
chain 2: DNENVVNEYSSELEKHQLYIDETVNSNIPTNLRVLRSILENLRSKIQKLESDVSAQMEYCRTPCTVSCNIPVVSGKECEEIIRKGGETSEMYLIQPDSSVKPYRVYCDMNTENGGWTVIQNRQDGSVDFGRKWDPYKQGFGNVATNTDGKNYCGLPGEYWLGNDKISQLTRMGPTELLIEMEDWKGDKVKAHYGGFTVQNEANKYQISVNKYRGTAGNALMDGASQLMGENRTMTIHNGMFFSTYDRDNDGWLTSDPRKQCSKEDGGGWWYNRCHAANPNGRYYWGGQYTWDMAKHGTDDGVVWMNWKGSWYSMRKMSMKIRPFFPQQ
chain 3: KMLEEIMKYEASILTHDSSIRYLQEIYNSNNQKIVNLKEKVAQLEAQCQEPCKDTVQIHDITGKDCQDIANKGAKQSGLYFIKPLKANQQFLVYCEIDGSGNGWTVFQKRLDGSVDFKKNWIQYKEGFGHLSPTGTTEFWLGNEKIHLISTQSAIPYALRVELEDWNGRTSTADYAMFKVGPEADKYRLTYAYFAGGDAGDAFDGFDFGDDPSDKFFTSHNGMQFSTWDNDNDKFEGNCAEQDGSGWWMNKCHAGHLNGVYYQGGTYSKASTPNGYDNGIIWATWKTRWYSMKKTTMKIIPFNRLTIGEGQQHHLGGAK
notes: domain: D fragment; also called Fg-D; D fragment of human Fg
B2: FBE5-A5 (scFv, V domains shown)
VH: EVQLVQSGGGVVQPGRSLRLSCAASGFTFSSYGMHWVRQAPGKGLEWVAVISYDGSNKYYADSVKGRFTISRDNSKNTLYLQMNSLRAEDTAVYYCAKAGPDSYGYGMDVWGQGTTVTVSS
VL: not shown
B3: FBE5-E5 (scFv, V domains shown)
VH: QMQLVQSGGGVVQPGRSLRLSCAASGFTFSSYGMHWVRQAPGKGLEWVAVISYDGSNKYYADSVKGRFTISRDNSKNTLYLQMNSLRGEDTAVYYCAREGGWEPNGLDYWGQGTLVTVSS
VL: QSVLTQPPSVSAAPGQKVTISCSGSSSNIGNNYVSWYQQLPGTAPKLLIYDNNKRPSGIPDRFSGSKSGTSATLGITGLQTGDEADYYCGTWDSSLSAEVFGGGTKLTVL
B4: FBE5-D10 (scFv, V domains shown)
VH: QVQLVQSGGGVVQPGRSLRLSCAASGFTFSNYGMHWVRQAPGKGLEWVAVISYDGSNKYYADSVKGRFTISRDNSKNTLYLQMNSLRAEDTAVYYCAKDSREQWLAHWGQGTLVTVSS
VL: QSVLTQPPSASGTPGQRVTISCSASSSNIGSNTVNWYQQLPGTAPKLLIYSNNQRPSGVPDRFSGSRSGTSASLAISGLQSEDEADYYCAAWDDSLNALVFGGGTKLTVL
B5: FBE5-D9 (scFv, V domains shown)
VH: QVQLVESGGGVVQPGRSLRLSCAASGFTFSSYGMHWVRQAPGKGLEWVAVISYDGSNKYYADSVKGRFTISRDNSKNTLYLQMNSLRAEDTAVYYCAKNQEWLVPGYWGQGTLVTVSS
VL: QSALTQPASVSGSPGQSITISCTGTSSDVGGYNYVSWYQQHPGKAPKLMIYDVSNRPSGVSNRFSGSKSGNTASLTISGLQAEDEADYYCSSYTSSSTLVFGGGTKLTVL
B6: FBE5-F11 (scFv, V domains shown)
VH: QVQLQESGGGVVQPGRSLRLSCAASGFTFSSYGMHWVRQAPGKGLEWVAVISYDGSNKYYADSVKGRFTISRDNSKNTLYLQMNSLRAEDTAVYYCAKDLASSGFDYWGQGTLVTVSS
VL: QSVLTQPPSVSAAPGQKVTISCSGSSSNIGNNYVSWYQQLPGTAPKLLIYDNNKRPSGIPDRFSGSKSGTSATLGITGLQTGDEADYYCGTWDSSLSAEVFGGGTKLTVL
B7: LIG40-D8 (scFv, V domains shown)
VH: EVQLVESGGGVVQPGRSLRLSCAASGFTFSSYGMHWVRQAPGKGLEWVAVIWYDGSNKYYADSVKGRFTISRDNSKNTLYLQMNSLRAEDTAVYYCARDYHGDGFDYWGQGTLVTVSS
VL: DIQMTQSPSSLSASVGDTVTITCRASQDINNYLAWFQQKPGKAPKSLISAASSLQNGVPLRFSGSASGADFTLTISGLQPEDSGTYYCQQYDVFPITFGPGTKVDIK

Tests used:
[1] = target: T3, synthetic peptide Coa-RI (Coa 506-532) (Staphylococcus aureus strain Newman); experiment: isothermal titration calorimetry, peptide into 10 µM Fg-D, one-site model
T3 construct: also called sCoa-RI

[2] = target: T1, Coa-R0474-505 (recombinant protein)
Efb-A30-67 [3] = target: T4, Efb-A30-67 (Staphylococcus aureus strain Newman, UniProt P08515 1-218 = GST; A6QG59 30-67)
Coa-R (Coa 506-636) [4] = target: T5, Coa-R (Coa 506-636) (Staphylococcus aureus strain Newman); experiment: ELISA, antigen coated 200 ng/well, scFv-Fc at 0.5 µg/ml
Coa-C (Coa 311-636) [5] = target: T6, Coa-C (Coa 311-636) (Staphylococcus aureus strain Newman, UniProt P08515 1-218 = GST); experiment: apparent Kd from half-maximal binding in ELISA (GraphPad Prism)
T6 construct: also called rCoa-C; Coa-C311-636

Coa-F (Coa 311-505) [6] = target: T7, Coa-F (Coa 311-505) (Staphylococcus aureus strain Newman, UniProt P08515 1-218 = GST); experiment: as above
[7] = target: T1, Coa-R0474-505 (recombinant protein); experiment: as above
Efb-N30-105 [8] = target: T2, Efb-N30-105; experiment: as above
Efb-A30-67 [9] = target: T4, Efb-A30-67; experiment: as above
[10] = target: T8, recombinant Efb-O (Efb 68-98) (Staphylococcus aureus strain Newman, UniProt P08515 1-218 = GST); experiment: as above
Efb-N30-105 [11] = target: T2, Efb-N30-105; experiment: ELISA, antigen coated 200 ng/well, scFv-Fc at 0.5 µg/ml
Coa-C (Coa 311-636) [12] = target: T6, Coa-C (Coa 311-636)
Coa-F (Coa 311-505) [13] = target: T7, Coa-F (Coa 311-505)
Efb-N30-105 [14] = target: T2, Efb-N30-105
[15] = target: T8, recombinant Efb-O (Efb 68-98)
Efb-N30-105 [16] = target: T2, Efb-N30-105; experiment: ELISA, apparent Kd from half maximum binding
Efb-A30-67 [17] = target: T4, Efb-A30-67; experiment: ELISA, apparent Kd from half maximum binding
[18] = target: T8, recombinant Efb-O (Efb 68-98); experiment: ELISA, apparent Kd from half maximum binding
Coa-C (Coa 311-636) [19] = target: T6, Coa-C (Coa 311-636); remark: listed apart in the source
Coa-R (Coa 506-636) [20] = target: T5, Coa-R (Coa 506-636)
Coa-F (Coa 311-505) [21] = target: T7, Coa-F (Coa 311-505); remark: listed apart in the source
BSA = target: T9, BSA (bovine, UniProt P02769 25-607); experiment: solid-phase binding assay (FIG. 24)
T9 construct: also called bovine serum albumin
T9 sequence (P02769 25-607 limits assumed): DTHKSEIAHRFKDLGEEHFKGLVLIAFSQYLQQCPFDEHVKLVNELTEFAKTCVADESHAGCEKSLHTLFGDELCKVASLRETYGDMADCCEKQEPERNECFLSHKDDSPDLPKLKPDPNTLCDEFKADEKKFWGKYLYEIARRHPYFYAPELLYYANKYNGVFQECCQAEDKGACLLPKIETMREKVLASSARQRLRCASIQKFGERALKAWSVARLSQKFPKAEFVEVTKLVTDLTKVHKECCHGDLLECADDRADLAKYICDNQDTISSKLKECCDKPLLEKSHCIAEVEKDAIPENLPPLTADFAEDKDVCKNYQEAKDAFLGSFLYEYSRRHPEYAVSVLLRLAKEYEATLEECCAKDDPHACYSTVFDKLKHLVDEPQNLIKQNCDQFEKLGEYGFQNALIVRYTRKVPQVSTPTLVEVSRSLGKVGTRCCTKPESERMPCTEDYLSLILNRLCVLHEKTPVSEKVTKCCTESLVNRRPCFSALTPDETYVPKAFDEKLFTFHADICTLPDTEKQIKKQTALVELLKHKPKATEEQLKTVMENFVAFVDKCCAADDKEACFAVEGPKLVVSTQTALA

Efb-N30-105 [22] = target: T2, Efb-N30-105; experiment: solid-phase binding assay, titration (FIG. 24)
Efb-A30-67 [23] = target: T4, Efb-A30-67; experiment: solid-phase binding assay, titration (FIG. 24)
[24] = target: T8, recombinant Efb-O (Efb 68-98); experiment: solid-phase binding assay, titration (FIG. 24)
Coa-R (Coa 506-636) [25] = target: T5, Coa-R (Coa 506-636); experiment: apparent Kd from half-maximal binding in ELISA (GraphPad Prism)
Protocol: (§1) As well, binding was tested against Coa fragments, namely Coa-C₃₁₁₋₆₃₆, Coa-F₃₁₁₋₅₀₅, Coa-R0₄₇₄₋₅₀₅ and Coa-R₅₀₆₋₆₃₆. Recombinant proteins Efb-N₃₀₋₁₀₅, Efb-A₃₀₋₆₇, Efb-O₆₈₋₉₈, Coa-C₃₁₁₋₆₃₆, Coa-F₃₁₁₋₅₀₅, Coa-R0₄₇₄₋₅₀₅ and Coa-R₅₀₆₋₆₃₆ were diluted in 50 mM sodium carbonate pH 9.6 and immobilized at the concentration of 200 ng/well for 1 hour at room temperature. Immobilized proteins were probed for recognition in a solid-phase binding assay with different quantities of LIG40 antibodies after blocking and washing. After washing, varying concentrations of LIG40 scFv-Fc antibodies were diluted in 2% BSA+1×PBS+0.05% Tween-20 and incubated with the immobilized proteins for 1 hour at room temperature with shaking at 250 rpm. Bound scFv-Fcs were detected using polyclonal α-human IgG HRP-conjugated Ab diluted to 1:10000 in 2% BSA+1×PBS+0.05% Tween-20. HRP-conjugated Ab was incubated for 1 hour at room temperature with shaking at 250 rpm. HRP signal was developed with Sigma FAST-OPD using manufacturers guidelines.

Coa-F (Coa 311-505) [26] = target: T7, Coa-F (Coa 311-505); experiment: as above; remark: listed apart in the source
Protocol: as §1

[27] = target: T1, Coa-R0474-505 (recombinant protein); experiment: as above
Protocol: as §1

Coa-C (Coa 311-636) [28] = target: T6, Coa-C (Coa 311-636); experiment: apparent Kd from half-maximal binding in ELISA (GraphPad Prism); column head prints M, the text prints µM

| Binder | EC50 (read off the curve) [2] | EC50 (read off the curve) (Efb-A30-67 [3]) | binding result (Coa-R (Coa 506-636) [4]) | Kd (Coa-C (Coa 311-636) [5]) | Kd (Coa-F (Coa 311-505) [6]) | Kd [7] | Kd (Efb-N30-105 [8]) | Kd (Efb-A30-67 [9]) | Kd [10] | EC50 (read off the curve) (Coa-C (Coa 311-636) [12]) | EC50 (read off the curve) [15] | further results |
| --- | --- | --- | --- | --- | --- | --- | --- | --- | --- | --- | --- | --- |
| B1 | – | – | – | – | – | – | – | – | – | – | – | Kd [1]: 88 nM |
| B2 | ~0.2 µg/mL | ~0.4 µg/mL | no binding (tested: 0.5 µg/ml) | 5.34 nM | 1.47 nM | 1.86 nM | 3.24 nM | 4.38 nM | 4.27 nM | – | – | – |
| B3 | – | – | no binding (tested: 0.5 µg/ml) | 6.27 nM | 9.5 nM | 864 nM | – | – | 434 nM | – | – | binding result (Efb-N30-105 [11]): binds |
| B4 | ~0.08 µg/mL | ~0.1 µg/mL | no binding (tested: 0.5 µg/ml) | 1.4 nM | 0.95 nM | 0.856 nM | 1.97 nM | 1.57 nM | 3.65 nM | ~0.1 µg/mL | ~0.3 µg/mL | EC50 (read off the curve) (Coa-F (Coa 311-505) [13]): ~0.09 µg/mL; EC50 (read off the curve) (Efb-N30-105 [14]): ~0.2 µg/mL |
| B5 | ~0.1 µg/mL | – | no binding (tested: 0.5 µg/ml) | 0.779 nM | 0.536 nM | 1.14 nM | 1.31 nM | 4.48 nM | 2.68 nM | ~0.08 µg/mL | ~0.3 µg/mL | EC50 (read off the curve) (Coa-F (Coa 311-505) [13]): ~0.06 µg/mL; EC50 (read off the curve) (Efb-N30-105 [14]): ~0.1 µg/mL |
| B6 | – | ~0.06 µg/mL | no binding (tested: 0.5 µg/ml) | 0.513 nM | 0.244 nM | 0.213 nM | 0.219 nM | 0.483 nM | 0.396 nM | ~0.06 µg/mL | ~0.05 µg/mL | Kd (Efb-N30-105 [16]): ~0.1 nM; Kd (Efb-A30-67 [17]): ~0.1 nM; Kd [18]: ~0.1 nM |
| B7 | – | – | – | – | – | – | – | – | – | – | – | EC50 (read off the curve) (Coa-C (Coa 311-636) [19]): ~0.01 µg/mL; EC50 (read off the curve) (Coa-R (Coa 506-636) [20]): ~0.01 µg/mL; EC50 (read off the curve) (Coa-F (Coa 311-505) [21]): ~0.01 µg/mL; binding result (BSA): no binding; binding result (Efb-N30-105 [22]): no binding; binding result (Efb-A30-67 [23]): no binding; binding result [24]: no binding; Kd (Coa-R (Coa 506-636) [25]): 0.0862 nM; Kd (Coa-F (Coa 311-505) [26]): 0.112 nM; Kd [27]: 2.52 nM; Kd (Coa-C (Coa 311-636) [28]): 0.0939 nM |
